According to IntAct's records for PubMed 17159145:

B1: Epstein-Barr nuclear antigen leader protein (Epstein-Barr virus (strain B95-8) (HHV-4)), Q8AZK7 (parent)
chain: MGDRSEGPGPTRPGPPGIGPEGPLGQLLRRHRSPSPTRGGQEPRRVRRRVLVQQEEEVVSGSPSGPRGDRSEGPGPTRPGPPGIGPEGPLGQLLRRHRSPSPTRGGQEPRRVRRRVLVQQEEEVVSGSPSGPRGDRSEGPGPTRPGPPGIGPEGPLGQLLRRHRSPSPTRGGQEPRRVRRRVLVQQEEEVVSGSPSGPRGDRSEGPGPTRPGPPGIGPEGPLGQLLRRHRSPSPTRGGQEPRRVRRRVLVQQEEEVVSGSPSGPRGDRSEGPGPTRPGPPGIGPEGPLGQLLRRHRSPSPTRGGQEPRRVRRRVLVQQEEEVVSGSPSGPRGDRSEGPGPTRPGPPGIGPEGPLGQLLRRHRSPSPTRGGQEPRRVRRRVLVQQEEEVVSGSPSGPRGDRSEGPGPTRPGPPGIGPEGPLGQLLRRHRSPSPTRGGQEPRRVRRRVLVQQEEEVVSGSPSGPLRPRPRPPARSLREWLLRIRDHFEPPTVTTQRQSVYIEEEEDED

Variants of: B1
Conditions: with hdac4_human HDAC4, P56524
hdac4_human HDAC4, P56524, sequence (P56524 whole entry): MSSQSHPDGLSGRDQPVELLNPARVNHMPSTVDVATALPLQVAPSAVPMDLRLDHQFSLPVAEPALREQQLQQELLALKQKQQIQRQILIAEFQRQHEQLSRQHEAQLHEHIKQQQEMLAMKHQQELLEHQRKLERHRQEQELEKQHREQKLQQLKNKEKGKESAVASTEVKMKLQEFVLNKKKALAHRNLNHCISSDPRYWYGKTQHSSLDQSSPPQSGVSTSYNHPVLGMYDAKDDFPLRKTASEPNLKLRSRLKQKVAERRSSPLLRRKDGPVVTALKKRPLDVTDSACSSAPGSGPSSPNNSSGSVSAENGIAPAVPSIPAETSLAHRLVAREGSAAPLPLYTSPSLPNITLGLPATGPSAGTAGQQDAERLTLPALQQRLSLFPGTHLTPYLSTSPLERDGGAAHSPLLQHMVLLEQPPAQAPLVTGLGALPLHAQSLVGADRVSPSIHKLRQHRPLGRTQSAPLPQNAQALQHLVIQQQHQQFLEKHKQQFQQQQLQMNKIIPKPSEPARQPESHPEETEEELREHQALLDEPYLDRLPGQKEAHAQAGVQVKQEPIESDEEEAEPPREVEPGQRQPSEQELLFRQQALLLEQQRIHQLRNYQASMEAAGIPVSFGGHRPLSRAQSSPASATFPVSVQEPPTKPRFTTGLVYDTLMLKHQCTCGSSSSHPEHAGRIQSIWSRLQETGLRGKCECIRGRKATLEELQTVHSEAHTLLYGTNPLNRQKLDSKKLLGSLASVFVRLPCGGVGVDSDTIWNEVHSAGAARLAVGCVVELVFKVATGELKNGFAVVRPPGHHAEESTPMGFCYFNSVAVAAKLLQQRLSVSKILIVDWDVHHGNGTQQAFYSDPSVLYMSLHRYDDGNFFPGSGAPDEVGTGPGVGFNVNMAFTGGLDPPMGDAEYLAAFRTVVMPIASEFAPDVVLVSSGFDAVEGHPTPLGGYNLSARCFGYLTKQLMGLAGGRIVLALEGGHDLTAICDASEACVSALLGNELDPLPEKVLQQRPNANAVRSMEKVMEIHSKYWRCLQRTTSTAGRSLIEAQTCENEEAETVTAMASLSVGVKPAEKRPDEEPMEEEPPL

For MGDRSEGPGPTRPGPPGIGPEGPLGQLLRRHRAPAPTRGGQEPRRVRRRVLVQQEEEVVSGAPSGPRGDRSEGPGPTRPGPPGIGPEGPLGQLLRRHRSPSPTRGGQEPRRVRRRVLVQQEEEVVSGSPSGPRGDRSEGPGPTRPGPPGIGPEGPLGQLLRRHRSPSPTRGGQEPRRVRRRVLVQQEEEVVSGSPSGPRGDRSEGPGPTRPGPPGIGPEGPLGQLLRRHRSPSPTRGGQEPRRVRRRVLVQQEEEVVSGSPSGPRGDRSEGPGPTRPGPPGIGPEGPLGQLLRRHRSPSPTRGGQEPRRVRRRVLVQQEEEVVSGSPSGPRGDRSEGPGPTRPGPPGIGPEGPLGQLLRRHRSPSPTRGGQEPRRVRRRVLVQQEEEVVSGSPSGPRGDRSEGPGPTRPGPPGIGPEGPLGQLLRRHRSPSPTRGGQEPRRVRRRVLVQQEEEVVSGSPSGPLRPRPRPPARSLREWLLRIRDHFEPPTVTTQRQSVYIEEEEDED [S33A;S35A;S62A], which “effect of a mutation on the interaction” value is on record?
Its value is “decreasing interaction strength”.
